Results on ten molecules are retold here after US20180118785A1 (University of Pennsylvania, published 2018).

Assay [1] deals with complement component C3 (human, in normal human plasma) (human) (UniProt P01024). Nature of the assay: cell-based or functional assay.
Assay [2] deals with complement component C3 (human, in normal human plasma) (human, UniProt P01024 23-1663). The experiment in a line: cell-based or functional assay.

Bridges are numbered along the chain shown (N, C = ends). [ ]: non-standard residue; d: D form. Bpa = N[C@@H](Cc1ccc(C(=O)c2ccccc2)cc1)C(=O)O; 1Nal = N[C@@H](Cc1cccc2ccccc12)C(=O)O; 2Nal = N[C@@H](Cc1ccc2ccccc2c1)C(=O)O; Igl = N[C@H](C(=O)O)C1Cc2ccccc2C1

In assay [1], “Compstatin analog with Ile substituted for Thr at position 13 (peptide)” came in with a complement-inhibitory activity compared with Compstatin (fold over Compstatin) of 21.

B1: Ac-4Dht,9A-OH (peptide)
peptide: ICVXQDWGAHRCT
modifications: N-terminal acetyl; dihydrotryptophan (Dht) at position 4; free C-terminal acid (COOH); disulfide bond between the two Cys residues
As to B1, in assay [2], the “Activity over Compstatin (inhibition of C3b/iC3b deposition on immunocomplexes in human plasma, compared by IC50)” value turned out to be 9 fold over Compstatin.

B2: Ac-4IgI,9A (peptide)
peptide: Ac-ICV[Igl]QDWGAHRCT-NH2
modifications: disulfide 2-12 (inferred)
Regarding B2, the “Activity over Compstatin (inhibition of C3b/iC3b deposition on immunocomplexes in human plasma, compared by IC50)” value in assay [2] was 55 fold over Compstatin.

B3: Ac-4(2-Nal),9A (peptide)
peptide: Ac-ICV[2Nal]QDWGAHRCT-NH2
modifications: disulfide 2-12 (inferred)
As to B3, the “Activity over Compstatin (inhibition of C3b/iC3b deposition on immunocomplexes in human plasma, compared by IC50)” value in assay [2] came out at 66 fold over Compstatin.

B4: +G,4W,9A + AN-OH (peptide)
peptide: H-GICVWQDWGAHRCTAN-OH
modifications: disulfide 3-13
SMILES: CC[C@H](C)[C@H](NC(=O)CN)C(=O)N[C@H]1CSSC[C@@H](C(=O)N[C@H](C(=O)N[C@@H](C)C(=O)N[C@@H](CC(N)=O)C(=O)O)[C@@H](C)O)NC(=O)[C@H](CCCNC(=N)N)NC(=O)[C@H](Cc2c[nH]cn2)NC(=O)[C@H](C)NC(=O)CNC(=O)[C@H](Cc2c[nH]c3ccccc23)NC(=O)[C@H](CC(=O)O)NC(=O)[C@H](CCC(N)=O)NC(=O)[C@H](Cc2c[nH]c3ccccc23)NC(=O)[C@H](C(C)C)NC1=O
B4: the “Activity over Compstatin (inhibition of C3b/iC3b deposition on immunocomplexes in human plasma, compared by IC50)” value in assay [2] came out at 38 fold over Compstatin.

B5: Ac-4(Bpa),9A-OH (peptide)
peptide: Ac-ICV[Bpa]QDWGAHRCT-OH
modifications: disulfide 2-12 (inferred)
Regarding B5, in assay [2], the “Activity over Compstatin (inhibition of C3b/iC3b deposition on immunocomplexes in human plasma, compared by IC50)” value is 55 fold over Compstatin.

B6: Ac-4(1-Nal),9A-OH (peptide)
peptide: Ac-ICV[1Nal]QDWGAHRCT-OH
modifications: disulfide 2-12 (inferred)
As for B6, the “Activity over Compstatin (inhibition of C3b/iC3b deposition on immunocomplexes in human plasma, compared by IC50)” value in assay [2] turned out to be 23 fold over Compstatin.

B7: Ac-4(2-Nal),9A-OH (peptide)
peptide: Ac-ICV[2Nal]QDWGAHRCT-OH
modifications: disulfide 2-12 (inferred)
Turning to B7, the “Activity over Compstatin (inhibition of C3b/iC3b deposition on immunocomplexes in human plasma, compared by IC50)” value in assay [2] stood at 39 fold over Compstatin.

B8: Ac-4Y,9A (peptide)
peptide: Ac-ICVYQDWGAHRCT-NH2
modifications: disulfide 2-12
SMILES: CC[C@H](C)[C@H](NC(C)=O)C(=O)N[C@H]1CSSC[C@@H](C(=O)N[C@H](C(N)=O)[C@@H](C)O)NC(=O)[C@H](CCCNC(=N)N)NC(=O)[C@H](Cc2c[nH]cn2)NC(=O)[C@H](C)NC(=O)CNC(=O)[C@H](Cc2c[nH]c3ccccc23)NC(=O)[C@H](CC(=O)O)NC(=O)[C@H](CCC(N)=O)NC(=O)[C@H](Cc2ccc(O)cc2)NC(=O)[C@H](C(C)C)NC1=O
In the case of B8, in assay [2], the “Activity over Compstatin (inhibition of C3b/iC3b deposition on immunocomplexes in human plasma, compared by IC50)” value stood at 19 fold over Compstatin.

B9: Ac-4IgI,9A-OH (peptide)
peptide: Ac-ICV[Igl]QDWGAHRCT-OH
modifications: disulfide 2-12 (inferred)
In the case of B9, the “Activity over Compstatin (inhibition of C3b/iC3b deposition on immunocomplexes in human plasma, compared by IC50)” value in assay [2] worked out at 55 fold over Compstatin.
